Data reported in article PMC12440825, “SNARE disassembly requires Sec18/NSF side loading” (Nature Structural & Molecular Biology, 2025).

B1: Sec18 (recombinant, complete coding sequence) (enzyme, S. cerevisiae, UniProt P18759 1-758, looked up)
chain: MFKIPGFGKAAANHTPPDMTNMDTRTRHLKVSNCPNNSYALANVAAVSPNDFPNNIYIIIDNLFVFTTRHSNDIPPGTIGFNGNQRTWGGWSLNQDVQAKAFDLFKYSGKQSYLGSIDIDISFRARGKAVSTVFDQDELAKQFVRCYESQIFSPTQYLIMEFQGHFFDLKIRNVQAIDLGDIEPTSAVATGIETKGILTKQTQINFFKGRDGLVNLKSSNSLRPRSNAVIRPDFKFEDLGVGGLDKEFTKIFRRAFASRIFPPSVIEKLGISHVKGLLLYGPPGTGKTLIARKIGTMLNAKEPKIVNGPEILSKYVGSSEENIRNLFKDAEAEYRAKGEESSLHIIIFDELDSVFKQRGSRGDGTGVGDNVVNQLLAKMDGVDQLNNILVIGMTNRKDLIDSALLRPGRFEVQVEIHLPDEKGRLQIFDIQTKKMRENNMMSDDVNLAELAALTKNFSGAEIEGLVKSASSFAINKTVNIGKGATKLNTKDIAKLKVTREDFLNALNDVTPAFGISEEDLKTCVEGGMMLYSERVNSILKNGARYVRQVRESDKSRLVSLLIHGPAGSGKTALAAEIALKSGFPFIRLISPNELSGMSESAKIAYIDNTFRDAYKSPLNILVIDSLETLVDWVPIGPRFSNNILQMLKVALKRKPPQDRRLLIMTTTSAYSVLQQMDILSCFDNEIAVPNMTNLDELNNVMIESNFLDDAGRVKVINELSRSCPNFNVGIKKTLTNIETARHDEDPVNELVELMTQSA
notes: Hexamer in the y20S complex; heptamer or split hexamer with ATP and Mg2+; No TEV cleavage is described for the preparation used for y20S; also called wild-type Sec18; substrate-free Sec18; source: E. coli BL21(DE3), purified (Ni-NTA, SEC)
B4: Sso1 (1–265) (domain or fragment, S. cerevisiae, UniProt P32867 1-265, looked up)
chain: MSYNNPYQLETPFEESYELDEGSSAIGAEGHDFVGFMNKISQINRDLDKYDHTINQVDSLHKRLLTEVNEEQASHLRHSLDNFVAQATDLQFKLKNEIKSAQRDGIHDTNKQAQAENSRQRFLKLIQDYRIVDSNYKEENKEQAKRQYMIIQPEATEDEVEAAISDVGGQQIFSQALLNANRRGEAKTALAEVQARHQELLKLEKSMAELTQLFNDMEELVIEQQENVDVIDKNVEDAQLDVEQGVGHTDKAVKSARKARKNKIR
notes: Sso1, S. cerevisiae syntaxin-like SNARE, residues 1-265 (Habc domain, linker, SNARE domain; no transmembrane domain); also called SNARE Sso1; source: E. coli BL21(DE3), purified (Ni-NTA, TEV, ion exchange, SEC); not shown: His6, N-terminal, cleaved
B5: Sec9 (401–651) (domain or fragment, S. cerevisiae, UniProt P40357 401-651, looked up)
chain: QRGYKTFEEIQKEEEARQQQEEDEAVDEIKQEIKFTKQSSVASTRNTLKMAQDAERAGMNTLGMLGHQSEQLNNVEGNLDLMKVQNKVADEKVAELKKLNRSILAVHVSNPFNSKRRRREREEQLKNRKIEEKLMREQTSQQLSQSTQRIEGAMNANNNISEVRERYQRKNVLEKAKRYQFENDEEDDEMELEIDRNLDQIQQVSNRLKKMALTTGKELDSQQKRLNNIEESTDDLDINLHMNTNRLAGIR
notes: Sec9, S. cerevisiae SNAP25-like SNARE, residues 401-651; source: E. coli BL21(DE3), purified (Ni-NTA, TEV, MonoS, SEC); not shown: His6, N-terminal, cleaved

Columns and labels:
[1] = molecular target: the molecule itself; experiment: cryo-EM structure; y20S complex in the hydrolyzing condition: as nonhydrolyzing, excess MgCl2 added on the grid, 7 s before vitrification; classes 1-4
[2] = molecular target: the molecule itself; experiment: cryo-EM structure; y20S complex in the nonhydrolyzing condition: preformed ySNARE complex + Sec17 + EDTA-quenched Sec18 (Sec18:SNARE:Sec17 1:1.67:10) in 50 mM Tris, 150 mM NaCl, 1 mM TCEP, 1 mM ATP, 1 mM EDTA pH 8, Superose 6; eight 3D classes
[3] = molecular target: B1; experiment: cryo-EM structure; y20S complex in the hydrolyzing condition: as nonhydrolyzing, excess MgCl2 added on the grid, 7 s before vitrification; classes 1-4; conditions: both partners purified
[4] = molecular target: T1, yeast exocytic SNARE complex Sso1–Sec9–Snc1 (S. cerevisiae, UniProt P32867 1-265; P40357 401-651; P31109 1-93); experiment: cryo-EM structure; y20S complex in the nonhydrolyzing condition: preformed ySNARE complex + Sec17 + EDTA-quenched Sec18 (Sec18:SNARE:Sec17 1:1.67:10) in 50 mM Tris, 150 mM NaCl, 1 mM TCEP, 1 mM ATP, 1 mM EDTA pH 8, Superose 6; eight 3D classes; conditions: both partners purified
T1 construct: Sso1, S. cerevisiae, residues 1-265; as m4; Sec9, S. cerevisiae, residues 401-651; as m5; Snc1, S. cerevisiae, residues 1-93; as m6; also called ySNARE complex; yeast exocytic complex; source: E. coli BL21(DE3), each SNARE purified, mixed 1:1:1 in 6 M GdHCl, dialysed, purified (MonoQ); not shown: His6, N-terminal, cleaved; copies: 1 + 1 + 1
T1 sequence (looked up) 1: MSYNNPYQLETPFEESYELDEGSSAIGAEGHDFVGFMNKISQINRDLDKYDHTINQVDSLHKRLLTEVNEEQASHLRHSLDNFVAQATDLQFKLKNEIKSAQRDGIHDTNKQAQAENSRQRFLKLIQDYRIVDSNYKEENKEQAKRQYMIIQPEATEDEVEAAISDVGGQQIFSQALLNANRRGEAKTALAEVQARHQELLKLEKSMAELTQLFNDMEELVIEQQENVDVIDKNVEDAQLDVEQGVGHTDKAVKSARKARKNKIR
T1 sequence (looked up) 2: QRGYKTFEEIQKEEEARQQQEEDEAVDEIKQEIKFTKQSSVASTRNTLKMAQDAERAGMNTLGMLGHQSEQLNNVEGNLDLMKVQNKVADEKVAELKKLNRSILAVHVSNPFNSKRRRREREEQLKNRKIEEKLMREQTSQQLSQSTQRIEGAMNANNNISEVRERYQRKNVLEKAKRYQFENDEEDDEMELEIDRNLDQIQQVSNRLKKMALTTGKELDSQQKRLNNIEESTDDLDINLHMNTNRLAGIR
T1 sequence (looked up) 3: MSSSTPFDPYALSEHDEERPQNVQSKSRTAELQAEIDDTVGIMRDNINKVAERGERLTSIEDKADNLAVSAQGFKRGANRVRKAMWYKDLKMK

[5] = molecular target: the molecule itself; experiment: cryo-EM structure; substrate-free NSF in the hydrolyzing condition: buffer with ATP and 1 mM MgCl2 instead of EDTA, final SEC; four classes, 3DVA of class 3
Sso1 (1–265) = molecular target: B4; experiment: cryo-EM structure; y20S complex in the nonhydrolyzing condition: preformed ySNARE complex + Sec17 + EDTA-quenched Sec18 (Sec18:SNARE:Sec17 1:1.67:10) in 50 mM Tris, 150 mM NaCl, 1 mM TCEP, 1 mM ATP, 1 mM EDTA pH 8, Superose 6; eight 3D classes; conditions: both partners purified
Sec9 (401–651) = molecular target: B5; experiment: as above; conditions: both partners purified

Q: What does the source list for B1?
A: stoichiometry N [1]: 7; stoichiometry N [2]: 6

B2: Sec17 (natural protein, S. cerevisiae, UniProt P32602 1-292, looked up)
chain: MSDPVELLKRAEKKGVPSSGFMKLFSGSDSYKFEEAADLCVQAATIYRLRKELNLAGDSFLKAADYQKKAGNEDEAGNTYVEAYKCFKSGGNSVNAVDSLENAIQIFTHRGQFRRGANFKFELGEILENDLHDYAKAIDCYELAGEWYAQDQSVALSNKCFIKCADLKALDGQYIEASDIYSKLIKSSMGNRLSQWSLKDYFLKKGLCQLAATDAVAAARTLQEGQSEDPNFADSRESNFLKSLIDAVNEGDSEQLSEHCKEFDNFMRLDKWKITILNKIKESIQQQEDDLL
notes: also called Sec17/α-SNAP; adaptor Sec17; source: E. coli BL21(DE3), purified (Ni-NTA, TEV, MonoQ, SEC); not shown: His10, N-terminal, cleaved
Q: Does B2 bind [3]?
A: Result: binds

Q: Does B2 bind [4]?
A: Result: binds

B3: NSF (N-ethylmaleimide-sensitive factor) (enzyme, C. griseus)
chain: MAGRSMQAARCPTDELSLSNCAVVSEKDYQSGQHVIVRTSPNHKYIFTLRTHPSVVPGSVAFSLPQRKWAGLSIGQEIEVALYSFDKAKQCIGTMTIEIDFLQKKNIDSNPYDTDKMAAEFIQQFNNQAFSVGQQLVFSFNDKLFGLLVKDIEAMDPSILKGEPASGKRQKIEVGLVVGNSQVAFEKAENSSLNLIGKAKTKENRQSIINPDWNFEKMGIGGLDKEFSDIFRRAFASRVFPPEIVEQMGCKHVKGILLYGPPGCGKTLLARQIGKMLNAREPKVVNGPEILNKYVGESEANIRKLFADAEEEQRRLGANSGLHIIIFDEIDAICKQRGSMAGSTGVHDTVVNQLLSKIDGVEQLNNILVIGMTNRPDLIDEALLRPGRLEVKMEIGLPDEKGRLQILHIHTARMRGHQLLSADVDIKELAVETKNFSGAELEGLVRAAQSTAMNRHIKASTKVEVDMEKAESLQVTRGDFLASLENDIKPAFGTNQEDYASYIMNGIIKWGDPVTRVLDDGELLVQQTKNSDRTPLVSVLLEGPPHSGKTALAAKIAEESNFPFIKICSPDKMIGFSETAKCQAMKKIFDDAYKSQLSCVVVDDIERLLDYVPIGPRFSNLVLQALLVLLKKAPPQGRKLLIIGTTSRKDVLQEMEMLNAFSTTIHVPNIATGEQLLEALELLGNFKDKERTTIAQQVKGKKVWIGIKKLLMLIEMSLQMDPEYRVRKFLALLREEGASPLDFD
notes: Heptamer (class 1) or hexamer (classes 2-4) with ATP and Mg2+; also called substrate-free NSF; high-purity NSF
Q: B3 was tested. Which “stoichiometry N” value [5] did it give?
A: The value was 7.

Q: Does B4 bind [3]?
A: Result: binds

Q: Does B5 bind (Sso1 (1–265))?
A: Result: binds

B6: Snc1 (1–93) (domain or fragment, S. cerevisiae, UniProt P31109 1-93, looked up)
chain: MSSSTPFDPYALSEHDEERPQNVQSKSRTAELQAEIDDTVGIMRDNINKVAERGERLTSIEDKADNLAVSAQGFKRGANRVRKAMWYKDLKMK
notes: Snc1, S. cerevisiae synaptobrevin-like SNARE, residues 1-93; source: E. coli BL21(DE3), purified (Ni-NTA, TEV, ion exchange, SEC); not shown: His6, N-terminal, cleaved
Q: Does B6 bind (Sso1 (1–265))?
A: Result: binds

Q: Does B6 bind (Sec9 (401–651))?
A: Result: binds
